T1: FcγRIIa H (human, UniProt P12318 34-217)
T1 construct: extracellular domain; also called FcγRIIa type H; 2aH
T1 sequence (looked up): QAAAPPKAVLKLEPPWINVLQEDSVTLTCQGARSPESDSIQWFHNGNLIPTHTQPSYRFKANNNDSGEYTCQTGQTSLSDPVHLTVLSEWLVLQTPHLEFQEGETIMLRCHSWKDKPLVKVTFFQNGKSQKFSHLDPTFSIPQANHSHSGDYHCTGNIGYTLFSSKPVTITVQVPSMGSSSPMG

T2: FcγRIIb (human, UniProt P31994 43-217)
T2 construct: extracellular domain; also called 2b
T2 sequence (looked up): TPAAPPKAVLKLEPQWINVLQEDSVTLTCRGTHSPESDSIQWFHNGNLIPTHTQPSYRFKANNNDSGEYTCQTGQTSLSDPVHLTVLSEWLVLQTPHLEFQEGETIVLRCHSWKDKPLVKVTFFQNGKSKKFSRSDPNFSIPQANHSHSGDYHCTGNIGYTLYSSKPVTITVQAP

T3: FcγRIIb extracellular domain with C-terminal His tag (human, UniProt P31994 43-217)
T3 construct: extracellular domain; also called 2b; FcgRIIb
T3 sequence (looked up): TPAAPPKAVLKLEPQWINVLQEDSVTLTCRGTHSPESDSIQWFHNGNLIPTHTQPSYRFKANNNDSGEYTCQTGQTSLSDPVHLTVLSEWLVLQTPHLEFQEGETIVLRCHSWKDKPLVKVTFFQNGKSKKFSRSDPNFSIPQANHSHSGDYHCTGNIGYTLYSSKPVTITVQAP


How the values were obtained:
FcγRIIa H [1] = target: T1, FcγRIIa H; assay: SPR; He/Con_2aH divided by He/Con_2b (FcγRIIb)
Method: (§1) The heterodimerized antibodies He Abs in which one of the H chains was introduced with an alteration were assayed for their binding activities to each activating FcγR and inhibitory FcγR according to the method described in Example 4. […] The activating FcγRs in FIGS. 26, 27, 28, and 29 are FcγRIa, FcγRIIa (R), FcγRIIa (H), and FcγRIIIa, respectively.
(§2) Analysis of interaction between objective antibody and the FcγR was carried out using Biacore T100 (GE Healthcare). HBS-EP+ (GE Healthcare) was used as the running buffer, and the measurement temperature was set to 25° C. Chips produced by immobilizing the antigen peptide by the amine coupling method to a Series S Sencor Chip CM5 (GE Healthcare), or alternatively, chips produced by allowing preliminarily biotinylated antigen peptides to interact with and immobilize onto a Series S Sensor Chip SA (certified) (GE Healthcare) were used. Antibodies of interest were captured onto an antigen peptide-immobilized chip, and allowed to interact to each FcγR diluted with running buffer. To regenerate and repeatedly use the chip, the antibodies captured on the chip were washed off by reacting 10 mM glycine-HCl, pH 1.5.

FcγRIIa H [2] = target: T1, FcγRIIa H; assay: SPR (Biacore), relative binding vs GpH7-A5/GpH7-B3/GpL16-k0
Method: as §1, §2

FcγRIIb = target: T2, FcγRIIb; assay: as above
Method: as §1, §2

[3] = target: T4, FcγRIIIa extracellular domain with C-terminal His tag (human, UniProt P08637 17-208); assay: SPR; He/Con_3a over He/Con_2b (FcγRIIb)
T4 construct: extracellular domain; also called 3a; FcgRIIIa
T4 sequence (P08637 17-208): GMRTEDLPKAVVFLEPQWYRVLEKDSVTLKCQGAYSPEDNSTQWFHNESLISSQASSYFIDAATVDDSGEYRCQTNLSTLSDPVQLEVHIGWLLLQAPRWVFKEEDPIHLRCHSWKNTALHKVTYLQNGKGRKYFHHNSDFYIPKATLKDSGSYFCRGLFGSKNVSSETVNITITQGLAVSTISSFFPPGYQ

[4] = target: T4, FcγRIIIa extracellular domain with …; assay: SPR, relative to GpH7-A5/GpH7-B3/GpL16-k0
[5] = target: T3, FcγRIIb extracellular domain with …; assay: SPR, relative to GpH7-A5/GpH7-B3/GpL16-k0

He_2aH/2b (IIaH/IIb) (FcγRIIa H [1]) | He/Con_2aH (FcγRIIa H [2]) | He/Con_2b (FcγRIIb) | He_3a/2b (IIIa/IIb) [3] | He/Con_3a [4] | He/Con_2b [5] | Binder
0.68 ratio | 114 % of control He Ab (=100) | 167 % of control He Ab (=100) | – | – | – | GpH7-A5/GpH7-B3 variant H268_02A/GpL16-k0 (antibody, human IgG1, kappa, heterodimerized IgG1, mutation in one H chain only; also called He Ab) heavy 1: not shown heavy 2: not shown light: DIVMTQSPLSLPVTPGEPASISCQASESLVHSNRNTYLHWYLQKPGQSPQLLIYKVSNRFSGVPDRFSGSGSGTDFTLKISRVEAEDVGVYYCSQNTHVPPTFGQGTKVEIERTVAAPSVFIFPPSDEQLKSGTASVVCLLNNFYPREAKVQWKVDNALQSGNSQESVTEQDSKDSTYSLSSTLTLSKADYEKHKVYACEVTHQGLSSPVTKSFNRGEC
0.55 ratio | 133 % of control He Ab (=100) | 239 % of control He Ab (=100) | – | – | – | GpH7-A5/GpH7-B3 variant H268_09D/GpL16-k0 (antibody, human IgG1, kappa, heterodimerized IgG1, mutation in one H chain only; also called He Ab) heavy 1: not shown heavy 2: not shown light: DIVMTQSPLSLPVTPGEPASISCQASESLVHSNRNTYLHWYLQKPGQSPQLLIYKVSNRFSGVPDRFSGSGSGTDFTLKISRVEAEDVGVYYCSQNTHVPPTFGQGTKVEIERTVAAPSVFIFPPSDEQLKSGTASVVCLLNNFYPREAKVQWKVDNALQSGNSQESVTEQDSKDSTYSLSSTLTLSKADYEKHKVYACEVTHQGLSSPVTKSFNRGEC
0.54 ratio | 124 % of control He Ab (=100) | 230 % of control He Ab (=100) | – | – | – | GpH7-A5/GpH7-B3 variant H268_10E/GpL16-k0 (antibody, human IgG1, kappa, heterodimerized IgG1, mutation in one H chain only; also called He Ab) heavy 1: not shown heavy 2: not shown light: DIVMTQSPLSLPVTPGEPASISCQASESLVHSNRNTYLHWYLQKPGQSPQLLIYKVSNRFSGVPDRFSGSGSGTDFTLKISRVEAEDVGVYYCSQNTHVPPTFGQGTKVEIERTVAAPSVFIFPPSDEQLKSGTASVVCLLNNFYPREAKVQWKVDNALQSGNSQESVTEQDSKDSTYSLSSTLTLSKADYEKHKVYACEVTHQGLSSPVTKSFNRGEC
– | – | – | 1.62 ratio | 75.8 control=100 | 46.8 control=100 | GpH7-A5/GpH7-B3 variant L235_14T/GpL16-k0 (antibody, human IgG1, kappa, He Ab: alteration in one H chain only; also called He Ab) heavy 1: not shown heavy 2: not shown light: DIVMTQSPLSLPVTPGEPASISCQASESLVHSNRNTYLHWYLQKPGQSPQLLIYKVSNRFSGVPDRFSGSGSGTDFTLKISRVEAEDVGVYYCSQNTHVPPTFGQGTKVEIERTVAAPSVFIFPPSDEQLKSGTASVVCLLNNFYPREAKVQWKVDNALQSGNSQESVTEQDSKDSTYSLSSTLTLSKADYEKHKVYACEVTHQGLSSPVTKSFNRGEC
0.77 ratio | 102 % of control He Ab (=100) | 133 % of control He Ab (=100) | – | – | – | GpH7-A5/GpH7-B3 variant H268_19Q/GpL16-k0 (antibody, human IgG1, kappa, heterodimerized IgG1, mutation in one H chain only; also called He Ab) heavy 1: not shown heavy 2: not shown light: DIVMTQSPLSLPVTPGEPASISCQASESLVHSNRNTYLHWYLQKPGQSPQLLIYKVSNRFSGVPDRFSGSGSGTDFTLKISRVEAEDVGVYYCSQNTHVPPTFGQGTKVEIERTVAAPSVFIFPPSDEQLKSGTASVVCLLNNFYPREAKVQWKVDNALQSGNSQESVTEQDSKDSTYSLSSTLTLSKADYEKHKVYACEVTHQGLSSPVTKSFNRGEC
0.7 ratio | 81.8 % of control He Ab (=100) | 116 % of control He Ab (=100) | – | – | – | GpH7-A5/GpH7-B3 variant H268_05P/GpL16-k0 (antibody, human IgG1, kappa, heterodimerized IgG1, mutation in one H chain only; also called He Ab) heavy 1: not shown heavy 2: not shown light: DIVMTQSPLSLPVTPGEPASISCQASESLVHSNRNTYLHWYLQKPGQSPQLLIYKVSNRFSGVPDRFSGSGSGTDFTLKISRVEAEDVGVYYCSQNTHVPPTFGQGTKVEIERTVAAPSVFIFPPSDEQLKSGTASVVCLLNNFYPREAKVQWKVDNALQSGNSQESVTEQDSKDSTYSLSSTLTLSKADYEKHKVYACEVTHQGLSSPVTKSFNRGEC
– | – | – | 1.65 ratio | 70.5 control=100 | 42.6 control=100 | GpH7-A5/GpH7-B3 variant L235_19Q/GpL16-k0 (antibody, human IgG1, kappa, He Ab: alteration in one H chain only; also called He Ab) heavy 1: not shown heavy 2: not shown light: DIVMTQSPLSLPVTPGEPASISCQASESLVHSNRNTYLHWYLQKPGQSPQLLIYKVSNRFSGVPDRFSGSGSGTDFTLKISRVEAEDVGVYYCSQNTHVPPTFGQGTKVEIERTVAAPSVFIFPPSDEQLKSGTASVVCLLNNFYPREAKVQWKVDNALQSGNSQESVTEQDSKDSTYSLSSTLTLSKADYEKHKVYACEVTHQGLSSPVTKSFNRGEC
0.55 ratio | 97 % of control He Ab (=100) | 175 % of control He Ab (=100) | – | – | – | GpH7-A5/GpH7-B3 variant K326_03V/GpL16-k0 (antibody, human IgG1, kappa, heterodimerized IgG1, mutation in one H chain only; also called He Ab) heavy 1: not shown heavy 2: not shown light: DIVMTQSPLSLPVTPGEPASISCQASESLVHSNRNTYLHWYLQKPGQSPQLLIYKVSNRFSGVPDRFSGSGSGTDFTLKISRVEAEDVGVYYCSQNTHVPPTFGQGTKVEIERTVAAPSVFIFPPSDEQLKSGTASVVCLLNNFYPREAKVQWKVDNALQSGNSQESVTEQDSKDSTYSLSSTLTLSKADYEKHKVYACEVTHQGLSSPVTKSFNRGEC
